The results in this text go back to PMC7042716 (Cell, 2020).

Assay [1] deals with BG505_(SOSIP.664) Env trimer (HIV-1 BG505 (clade A), SOSIP.664 with …, stabilised).
Assay [2] concerns the target YU2_(gp140) (foldon trimer) (HIV-1 (strain YU2)).

B1: 561_03_78 (antibody, V domains shown)
VH: QLVQSGGGVRRPGASVKISCETPEYTFTKYWLHWLRQAPGRGLEWMGVVSPHGGRPMFAFEFRDRLTLTRDIHTTTHYMELGGLTSDDTAVYYCARDPFGETFRGHDQPYQMDVWGGGTTIVVSS
VL: EPVLTQSPGTLSLSPGERATLSCRARQGFSADHVAWFQKKPGRPPRLLIFEASRRASGTPERFSGSGSGPEYTLTITRVEPEDFAVYYCQSYGSITPLVFGGGTRVDVK
With B1, the binding result in assay [1] and in assay [2] was “binds” each time.
